Publication PMC4777856, “Structural Basis of Stereospecificity in the Bacterial Enzymatic Cleavage of β-Aryl Ether Bonds in Lignin” (The Journal of Biological Chemistry, 2015)

B1: LigE (Sphingobium sp. SYK-6) (protein)
chain: MARNNTITLYDLQLESGCTISPYVWRTKYALKHKGFDIDIVPGGFTGILERTGGRSERVPVIVDDGEWVLDSWVIAEYLDEKYPDRPMLFEGPTQKNLMKFLDNWLWSTAVGPWFRCYILDYHDLSLPQDRDYVRWSREQWFLGGQRLEDVQAGREDRLPLVPPTLEPFRRILAETKWLGGDQPNFADYSALAVFLWTASVARTPPLTEDDPLRDWLDRGFDLFDGLGRHPGMNPLFGLKLREGDPEPFVRQTGPAGAGGQALNKGPQTTKMPPRVAEKAD
notes: full-length LigE (282 residues), E. coli, synthesized gene in pCPD, C-terminal CPD-His tag cleaved off after a leucine; dimer
B2: LigF (Sphingobium sp. SYK-6) (protein)
chain: MTLKLYSFGPGANSLKPLATLYEKGLEFEQVFVDPSKFEQHSDWFKKINPRGQVPALWHDGKVVTESTVICEYLEDVFPESGNSLRPADPFKRAEMRVWTKWVDEYFCWCVSTIGWAFGIKAIAQKMSDEEFEEHINKNVPIPEQQLKWRRARNGFPQEMLDEEFRKVGVSVARLEETLSKQDYLVDTGYSLADICNFAIANGLQRPGGFFGDYVNQEKTPGLCAWLDRINARPAIKEMFEKSKREDLLKRQNEKVA
notes: full-length wild type LigF (254 residues), vector pVP102KSSLigF; dimer

Experiments:
purified protein [1] = substrate: COc1ccc(C(=O)[C@@H](CO)Oc2ccc(C=O)cc2OC)cc1OC; assay: purified protein; format: biochemical, Sphingobium sp. SYK-6; conditions: 5 mM GSH, 25 mM Tris, 2.5% DMSO, pH 8.0, 30 °C
purified protein [2] = substrate: COc1ccc(C(=O)[C@H](CO)Oc2ccc(C=O)cc2OC)cc1OC; assay: purified protein; format: biochemical, Sphingobium sp. SYK-6; conditions: 5 mM GSH, 25 mM Tris, 2.5% DMSO, pH 8.0, 30 °C

| Protein | Km (purified protein [1]) | Vmax (purified protein [1]) | kcat (purified protein [1]) | kcat/Km (purified protein [1]) | Km (purified protein [2]) | Vmax (purified protein [2]) | kcat (purified protein [2]) | kcat/Km (purified protein [2]) |
| --- | --- | --- | --- | --- | --- | --- | --- | --- |
| B1 | 554 ± 16 µM | 59.7 µmol/min/mg | 31.9 ± 0.6 s⁻¹ | 57600 ± 4800 M⁻¹ s⁻¹ | – | – | – | – |
| B2 | – | – | – | – | 269 ± 1 µM | 63.8 µmol/min/mg | 31.9 ± 0.1 s⁻¹ | 118400 ± 1100 M⁻¹ s⁻¹ |
